± gives the uncertainty stated by the source.
Experiment: self-splicing fitness, log relative to wild type (ln ratio); higher = more splicing; Tetrahymena group I intron in knt gene, E. coli kanamycin selection, DiMSum; sequences stand for … in CUCUCU…GGAGGGAAAAGUUAUCAGGCAUGCACCUGGUAGCUAGUCUUUAAACCAAUAGAUUGCAUCGGUUUAAAAGGCAAGACCGUCAAAUUGCGGGAAAGGGGUCAACAGCCGUUCAGUACCAAGUCUCAGGGGAAACUUUGAGAUGGCCUUGCAAAGGGUAUGGUAAUAAGCUGACGGACAUGGUCCUAACCACGCAGCCAAGUCCUAAGUCAACAGAUCUUCUGUUGAUAUGGAUGCAGUUCACAGACUAAAUGUCGGUCGGGGAAGAUGUAUUCUUCUCAUAAGAUAUAGUCGGACCUCUCCUUAAUGGGAGCUAGCGGAUGAAGUGAUGCAACACUGGAGCCGCUGGGAACUAAUUUGUAUGCGAAAGUAUAUUGAUUAGUUUUGGAGUACUCGUGGUCG
Method in brief: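 The eight P1ex-region nucleotides of an intron in the knt kanamycin-resistance gene on pET-22b(+) were all randomised and the library put into E. coli BL21(DE3). Six replicate transformations were grown overnight at 37°C or 30°C on LB agar with or without 25 μg/mL kanamycin, together with 100 μg/mL carbenicillin, 50 μM IPTG and 0.2% rhamnose. Colonies were pooled and amplicon-sequenced on an Illumina HiSeq 2500. Fitness from DiMSum is the error-weighted combination of wild-type-normalised replicate fold changes, kanamycin over none.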

Row | Sequence | self-splicing fitness (ln) (30 °C) | self-splicing fitness (ln) (37 °C)
1 | UUCCAGCAAUAUUACGCACU | -3.48 ± 0.31 | -0.748 ± 0.16
2 | UUCCAGCAAUAUUACGCAGC | -3.77 ± 0.33 | -2.31 ± 0.35
3 | UUCCAGCAAUAUUACGCAUA | -0.568 ± 0.093 | 0.161 ± 0.096
4 | UUCCAGCAAUAUUACGCCUA | -0.199 ± 0.076 | 0.206 ± 0.091
5 | UUCCAGCAAUAUUACGCCUC | -1.84 ± 0.21 | -0.711 ± 0.29
6 | UUCCAGCAAUAUUACGCCUG | -3.5 ± 0.47 | -2.35 ± 0.39
7 | UUCCAGCAAUAUUACGCGAC | -3.35 ± 0.24 | -0.902 ± 0.19
8 | UUCCAGCAAUAUUACGCGAU | -2.85 ± 0.21 | -1.32 ± 0.18
9 | UUCCAGCAAUAUUACGCGCC | -2.72 ± 0.24 | -0.4 ± 0.21
10 | UUCCAGCAAUAUUACGCGCG | -0.776 ± 0.068 | -0.688 ± 0.099
11 | UUCCAGCAAUAUUACGCUGU | -3.96 ± 0.24 | -2.42 ± 0.22
12 | UUCCAGCAAUAUUACGCUUA | -0.131 ± 0.066 | -0.175 ± 0.077
13 | UUCCAGCAAUAUUACGGAUG | -0.779 ± 0.058 | 0.293 ± 0.076
14 | UUCCAGCAAUAUUACGGCAG | -0.446 ± 0.075 | -0.096 ± 0.11
15 | UUCCAGCAAUAUUACGGCCA | -1.08 ± 0.13 | 0.682 ± 0.16
16 | UUCCAGCAAUAUUACGGCUC | -2.48 ± 0.21 | -0.924 ± 0.21
17 | UUCCAGCAAUAUUACGGGCC | -3.91 ± 0.3 | -2.34 ± 0.33
18 | UUCCAGCAAUAUUACGGGGC | -3.09 ± 0.32 | -2.82 ± 0.34
19 | UUCCAGCAAUAUUACGUACG | -0.796 ± 0.1 | -0.902 ± 0.16
20 | UUCCAGCAAUAUUACGUCCA | -1.05 ± 0.12 | -0.679 ± 0.14
21 | UUCCAGCAAUAUUACGUCCC | -2 ± 0.33 | -1.84 ± 0.3
22 | UUCCAGCAAUAUUACGUGGC | -3.11 ± 0.15 | -3.15 ± 0.24
23 | UUCGAGCAAUAUUACGACGG | -1.24 ± 0.11 | -0.685 ± 0.1
24 | UUCGAGCAAUAUUACGACUG | -3.35 ± 0.34 | -1.48 ± 0.26
25 | UUCGAGCAAUAUUACGAGAU | -3.95 ± 0.35 | -2.34 ± 0.31

Row | Sequence | self-splicing fitness (ln) (30 °C) | self-splicing fitness (ln) (37 °C)
26 | UUCGAGCAAUAUUACGAUAU | -3.85 ± 0.33 | -2.51 ± 0.49
27 | UUCGAGCAAUAUUACGAUCA | -1.89 ± 0.2 | -0.432 ± 0.14
28 | UUCGAGCAAUAUUACGCAAA | -0.773 ± 0.28 | -1.92 ± 0.26
29 | UUCGAGCAAUAUUACGCACC | -3.33 ± 0.29 | -1.91 ± 0.24
30 | UUCGAGCAAUAUUACGCAUC | -2.83 ± 0.39 | –
31 | UUCGAGCAAUAUUACGCCAA | -2.89 ± 0.48 | -2.07 ± 0.27
32 | UUCGAGCAAUAUUACGCGUA | -1.94 ± 0.14 | -1.51 ± 0.12
33 | UUCGAGCAAUAUUACGCGUC | -2.99 ± 0.23 | -2.34 ± 0.37
34 | UUCGAGCAAUAUUACGCGUU | -1.87 ± 0.22 | -1.88 ± 0.27
35 | UUCGAGCAAUAUUACGCUCU | -3.38 ± 0.15 | -2.43 ± 0.14
36 | UUCGAGCAAUAUUACGCUUA | -2.79 ± 0.21 | -1.58 ± 0.18
37 | UUCGAGCAAUAUUACGGAAA | -1.51 ± 0.18 | -2.84 ± 0.32
38 | UUCGAGCAAUAUUACGGAAG | -2.42 ± 0.22 | -2.12 ± 0.4
39 | UUCGAGCAAUAUUACGGCGC | -2.99 ± 0.34 | -2.36 ± 0.39
40 | UUCGAGCAAUAUUACGGGUA | -1.16 ± 0.18 | -1.36 ± 0.15
41 | UUCGAGCAAUAUUACGUCCA | -2.49 ± 0.31 | -1.75 ± 0.44
42 | UUCGAGCAAUAUUACGUCUA | -1.29 ± 0.15 | -0.414 ± 0.13
43 | UUCGAGCAAUAUUACGUUAU | -2.58 ± 0.2 | -2.82 ± 0.38
44 | UUCGAGCAAUAUUACGUUCC | -2.94 ± 0.26 | -1.19 ± 0.3
45 | UUCGAGCAAUAUUACGUUUU | -3.49 ± 0.18 | -2.77 ± 0.2
46 | UUCUAGCAAUAUUACGAAUG | -2.45 ± 0.4 | –
47 | UUCUAGCAAUAUUACGACCG | -1.13 ± 0.26 | -1.07 ± 0.42
48 | UUCUAGCAAUAUUACGACUG | -1.64 ± 0.17 | -0.702 ± 0.2
49 | UUCUAGCAAUAUUACGAGUA | -0.88 ± 0.15 | -0.0809 ± 0.13
50 | UUCUAGCAAUAUUACGCACA | -0.654 ± 0.27 | -0.205 ± 0.23

Row | Sequence | self-splicing fitness (ln) (30 °C) | self-splicing fitness (ln) (37 °C)
51 | UUCUAGCAAUAUUACGCAGU | -3.89 ± 0.43 | -3.11 ± 0.35
52 | UUCUAGCAAUAUUACGCAUU | -1.95 ± 0.29 | -1.5 ± 0.35
53 | UUCUAGCAAUAUUACGCUGC | – | -2.1 ± 0.38
54 | UUCUAGCAAUAUUACGGAUA | -1.44 ± 0.17 | -0.551 ± 0.15
55 | UUCUAGCAAUAUUACGGCCU | -3.05 ± 0.38 | –
56 | UUCUAGCAAUAUUACGGGGA | -0.859 ± 0.21 | -0.995 ± 0.21
57 | UUCUAGCAAUAUUACGGUGU | -3.4 ± 0.32 | -2.91 ± 0.37
58 | UUCUAGCAAUAUUACGUCCG | -1.45 ± 0.25 | -0.81 ± 0.31
59 | UUCUAGCAAUAUUACGUCGG | -3.54 ± 0.26 | -3.1 ± 0.29
60 | UUCUAGCAAUAUUACGUGAC | -3.69 ± 0.31 | -1.61 ± 0.24
61 | UUCUAGCAAUAUUACGUGGC | -3.1 ± 0.24 | –
62 | UUCUAGCAAUAUUACGUGUC | -3.35 ± 0.19 | -3.01 ± 0.21
63 | UUGAAGCAAUAUUACGAAUA | -0.868 ± 0.12 | -1.13 ± 0.15
64 | UUGAAGCAAUAUUACGACCC | -3.15 ± 0.28 | -0.772 ± 0.17
65 | UUGAAGCAAUAUUACGACCG | -0.105 ± 0.28 | 0.113 ± 0.28
66 | UUGAAGCAAUAUUACGACCU | 0.0483 ± 0.11 | 0.587 ± 0.14
67 | UUGAAGCAAUAUUACGACUG | -0.106 ± 0.073 | 0.183 ± 0.097
68 | UUGAAGCAAUAUUACGAGAG | -1.5 ± 0.12 | -0.926 ± 0.14
69 | UUGAAGCAAUAUUACGAGCG | -0.107 ± 0.089 | 0.65 ± 0.14
70 | UUGAAGCAAUAUUACGAUCG | -0.0761 ± 0.14 | 0.264 ± 0.19
71 | UUGAAGCAAUAUUACGAUGU | -1.61 ± 0.067 | -0.962 ± 0.11
72 | UUGAAGCAAUAUUACGCAUU | -3.34 ± 0.23 | -3.18 ± 0.25
73 | UUGAAGCAAUAUUACGCCAG | -0.461 ± 0.14 | 0.214 ± 0.21
74 | UUGAAGCAAUAUUACGCUCU | -1.82 ± 0.12 | -0.916 ± 0.12
75 | UUGAAGCAAUAUUACGCUGA | -1.61 ± 0.15 | -0.574 ± 0.19

Row | Sequence | self-splicing fitness (ln) (30 °C) | self-splicing fitness (ln) (37 °C)
76 | UUGAAGCAAUAUUACGGAGC | -2.81 ± 0.21 | -2.5 ± 0.41
77 | UUGAAGCAAUAUUACGGCAC | -0.928 ± 0.13 | -0.814 ± 0.17
78 | UUGAAGCAAUAUUACGGUAA | -0.968 ± 0.1 | -0.399 ± 0.12
79 | UUGAAGCAAUAUUACGGUAU | -2.49 ± 0.11 | -1.5 ± 0.18
80 | UUGAAGCAAUAUUACGGUCU | -0.0588 ± 0.058 | -0.0885 ± 0.075
81 | UUGAAGCAAUAUUACGGUGU | -3.13 ± 0.17 | -1.16 ± 0.15
82 | UUGAAGCAAUAUUACGUACC | -3.61 ± 0.41 | -1.07 ± 0.35
83 | UUGAAGCAAUAUUACGUAGA | -1.28 ± 0.12 | -0.894 ± 0.15
84 | UUGCAGCAAUAUUACGAACU | -2.25 ± 0.23 | -2.11 ± 0.22
85 | UUGCAGCAAUAUUACGAAUU | -2.18 ± 0.18 | -0.985 ± 0.19
86 | UUGCAGCAAUAUUACGACGA | 0.0944 ± 0.089 | 0.407 ± 0.12
87 | UUGCAGCAAUAUUACGAGUU | -4.24 ± 0.27 | -3.36 ± 0.37
88 | UUGCAGCAAUAUUACGAUAU | -4.06 ± 0.32 | -1.78 ± 0.24
89 | UUGCAGCAAUAUUACGAUCC | -3.64 ± 0.47 | -1.68 ± 0.35
90 | UUGCAGCAAUAUUACGCACA | -0.577 ± 0.11 | 0.406 ± 0.15
91 | UUGCAGCAAUAUUACGCACG | -1.2 ± 0.13 | -1.24 ± 0.12
92 | UUGCAGCAAUAUUACGCAUA | -1.6 ± 0.13 | -0.643 ± 0.12
93 | UUGCAGCAAUAUUACGCGCA | -1.84 ± 0.14 | -0.231 ± 0.18
94 | UUGCAGCAAUAUUACGCGCG | -1.88 ± 0.12 | -1.29 ± 0.14
95 | UUGCAGCAAUAUUACGCGGA | -1.29 ± 0.12 | -0.882 ± 0.13
96 | UUGCAGCAAUAUUACGCUAC | -0.542 ± 0.29 | –
97 | UUGCAGCAAUAUUACGGAGC | -2.2 ± 0.15 | –
